Source: the supplement of paper PMC10065799, “High-throughput profiling of sequence recognition by tyrosine kinases and SH2 domains using bacterial peptide display” (eLife, 2023)

Assays:
[1] = biological target: EPHB2 (UniProt P29323); assay: phosphorylation enrichment, bacterial display (enrichment ratio); higher = better substrate or ligand; peptides without Tyr show the background
[2] = biological target: Fes (UniProt P07332); assay: as above
[3] = biological target: Fyn (UniProt P06241); assay: as above
Sequence of Fyn (P06241 whole entry, looked up): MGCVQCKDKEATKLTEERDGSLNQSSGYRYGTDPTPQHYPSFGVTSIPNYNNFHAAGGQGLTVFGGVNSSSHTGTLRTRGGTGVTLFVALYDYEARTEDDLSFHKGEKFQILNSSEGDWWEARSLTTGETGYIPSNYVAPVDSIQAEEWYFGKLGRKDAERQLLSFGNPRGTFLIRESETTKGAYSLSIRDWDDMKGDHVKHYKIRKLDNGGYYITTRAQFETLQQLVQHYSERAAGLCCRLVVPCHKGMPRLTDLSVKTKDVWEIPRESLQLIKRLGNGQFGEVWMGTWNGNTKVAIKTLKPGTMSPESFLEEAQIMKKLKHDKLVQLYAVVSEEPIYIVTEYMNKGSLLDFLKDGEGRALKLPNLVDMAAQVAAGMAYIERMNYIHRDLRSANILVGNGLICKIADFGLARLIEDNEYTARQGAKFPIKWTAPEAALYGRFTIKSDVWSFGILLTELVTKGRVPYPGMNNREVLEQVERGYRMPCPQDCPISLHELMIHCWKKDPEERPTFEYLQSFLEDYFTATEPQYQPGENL

[4] = biological target: Jak2 (UniProt O60674); assay: as above
[5] = system: AncSZ; assay: as above
[6] = biological target: Hck (UniProt P08631); assay: as above
[7] = biological target: MERTK (UniProt Q12866); assay: as above
Sequence of MERTK (Q12866 whole entry, looked up): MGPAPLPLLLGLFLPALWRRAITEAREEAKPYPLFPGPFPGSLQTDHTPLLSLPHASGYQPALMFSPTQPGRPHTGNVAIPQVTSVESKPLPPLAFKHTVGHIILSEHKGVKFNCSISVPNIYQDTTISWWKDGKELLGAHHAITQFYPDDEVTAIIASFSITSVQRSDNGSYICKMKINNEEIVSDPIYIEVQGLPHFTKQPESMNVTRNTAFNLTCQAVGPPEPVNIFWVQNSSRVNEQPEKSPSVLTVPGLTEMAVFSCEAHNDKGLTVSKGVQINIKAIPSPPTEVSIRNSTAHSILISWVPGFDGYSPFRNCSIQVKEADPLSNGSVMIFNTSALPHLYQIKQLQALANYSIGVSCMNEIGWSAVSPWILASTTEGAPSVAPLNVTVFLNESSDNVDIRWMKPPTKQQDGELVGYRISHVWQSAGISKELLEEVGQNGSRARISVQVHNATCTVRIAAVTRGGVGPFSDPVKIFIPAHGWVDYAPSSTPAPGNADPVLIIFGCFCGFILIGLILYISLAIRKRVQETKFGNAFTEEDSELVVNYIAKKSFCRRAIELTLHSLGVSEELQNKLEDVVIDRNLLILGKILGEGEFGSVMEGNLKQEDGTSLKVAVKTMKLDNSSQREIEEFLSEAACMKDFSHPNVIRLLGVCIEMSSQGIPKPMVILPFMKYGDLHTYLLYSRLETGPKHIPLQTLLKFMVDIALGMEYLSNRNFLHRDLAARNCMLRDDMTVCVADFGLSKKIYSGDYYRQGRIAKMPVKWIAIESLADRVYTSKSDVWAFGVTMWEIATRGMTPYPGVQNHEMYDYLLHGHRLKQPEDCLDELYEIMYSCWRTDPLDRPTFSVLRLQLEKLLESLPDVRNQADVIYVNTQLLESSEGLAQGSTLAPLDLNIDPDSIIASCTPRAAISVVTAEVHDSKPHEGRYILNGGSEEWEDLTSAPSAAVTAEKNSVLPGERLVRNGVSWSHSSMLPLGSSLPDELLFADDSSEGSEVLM

[8] = system: Fer (mouse); assay: as above
[9] = biological target: FGFR3 (UniProt P22607); assay: as above
Sequence of FGFR3 (P22607 whole entry, looked up): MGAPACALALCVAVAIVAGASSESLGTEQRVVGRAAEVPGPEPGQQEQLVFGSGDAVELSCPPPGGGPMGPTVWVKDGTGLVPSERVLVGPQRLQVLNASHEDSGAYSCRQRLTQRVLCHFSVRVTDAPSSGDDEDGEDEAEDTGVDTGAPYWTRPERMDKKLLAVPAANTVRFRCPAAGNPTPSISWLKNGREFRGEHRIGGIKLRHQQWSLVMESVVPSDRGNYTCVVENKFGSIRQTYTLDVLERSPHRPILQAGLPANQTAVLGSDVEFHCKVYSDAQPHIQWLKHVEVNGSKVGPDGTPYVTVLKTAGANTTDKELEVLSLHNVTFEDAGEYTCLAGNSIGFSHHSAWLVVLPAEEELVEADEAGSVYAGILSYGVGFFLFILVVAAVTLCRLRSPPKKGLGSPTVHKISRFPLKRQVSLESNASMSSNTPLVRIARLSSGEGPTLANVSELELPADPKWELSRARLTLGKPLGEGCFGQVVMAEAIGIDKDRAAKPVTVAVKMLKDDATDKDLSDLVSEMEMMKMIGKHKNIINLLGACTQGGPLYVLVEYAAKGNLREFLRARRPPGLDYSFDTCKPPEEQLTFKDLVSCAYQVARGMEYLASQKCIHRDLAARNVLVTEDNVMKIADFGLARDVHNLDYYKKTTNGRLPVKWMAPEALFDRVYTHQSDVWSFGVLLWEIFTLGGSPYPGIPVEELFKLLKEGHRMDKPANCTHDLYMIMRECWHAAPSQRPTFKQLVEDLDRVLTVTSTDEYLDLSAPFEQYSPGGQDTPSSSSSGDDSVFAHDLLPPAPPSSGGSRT

[10] = biological target: EPHB1 (UniProt P54762); assay: as above
[11] = system: c-Abl (mouse); assay: as above
[12] = system: c-Src; assay: as above
[13] = biological target: FGFR1 (UniProt P11362); assay: as above
Sequence of FGFR1 (P11362 whole entry, looked up): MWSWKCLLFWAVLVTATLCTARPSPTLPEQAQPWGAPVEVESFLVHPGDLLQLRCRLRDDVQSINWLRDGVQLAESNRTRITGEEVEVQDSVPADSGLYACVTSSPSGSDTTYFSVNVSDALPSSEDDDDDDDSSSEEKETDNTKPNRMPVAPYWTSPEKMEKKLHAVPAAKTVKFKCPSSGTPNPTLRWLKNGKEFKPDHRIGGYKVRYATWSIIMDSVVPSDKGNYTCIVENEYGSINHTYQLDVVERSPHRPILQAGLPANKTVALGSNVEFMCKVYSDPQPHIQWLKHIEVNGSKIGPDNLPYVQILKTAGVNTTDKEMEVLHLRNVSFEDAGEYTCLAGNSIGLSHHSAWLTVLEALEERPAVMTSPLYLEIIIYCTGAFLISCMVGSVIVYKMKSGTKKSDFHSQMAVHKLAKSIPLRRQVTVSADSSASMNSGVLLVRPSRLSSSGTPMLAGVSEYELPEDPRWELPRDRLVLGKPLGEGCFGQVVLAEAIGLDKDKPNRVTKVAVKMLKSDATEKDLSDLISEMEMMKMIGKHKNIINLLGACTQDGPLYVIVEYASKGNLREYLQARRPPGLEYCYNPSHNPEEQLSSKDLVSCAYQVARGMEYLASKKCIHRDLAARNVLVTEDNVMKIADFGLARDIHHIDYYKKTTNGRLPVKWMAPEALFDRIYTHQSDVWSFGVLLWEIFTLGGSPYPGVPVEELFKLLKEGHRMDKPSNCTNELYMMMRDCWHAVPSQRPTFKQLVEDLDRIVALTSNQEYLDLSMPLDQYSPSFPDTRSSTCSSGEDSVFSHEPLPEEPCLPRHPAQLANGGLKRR

[14] = biological target: SHP2-C SH2; assay: SH2 binding enrichment of the phosphorylated peptide, bacterial display (enrichment ratio); higher = better substrate or ligand; peptides without Tyr show the background
[15] = biological target: c-Src SH2; assay: as above
[16] = biological target: Grb2 SH2 (UniProt P62993); assay: as above
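Throughout, for SH2 binding enrichment of the phosphorylated peptide, bacterial display: peptide library displayed on the E. coli surface as eCPX fusions, selected cells deep-sequenced, score is each peptide's frequency after selection divided by its frequency in the input.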
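Throughout, for phosphorylation enrichment, bacterial display: 11-residue human phosphosite peptides and single-mutation variants displayed on the E. coli surface, counted by deep sequencing, each peptide's frequency after selection divided by its frequency in the unselected input library; frequency after pTyr selection over input frequency; kinase dosed for 20-30% of maximal phosphorylation in three min.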

Sequence of Fes (P07332 whole entry, looked up): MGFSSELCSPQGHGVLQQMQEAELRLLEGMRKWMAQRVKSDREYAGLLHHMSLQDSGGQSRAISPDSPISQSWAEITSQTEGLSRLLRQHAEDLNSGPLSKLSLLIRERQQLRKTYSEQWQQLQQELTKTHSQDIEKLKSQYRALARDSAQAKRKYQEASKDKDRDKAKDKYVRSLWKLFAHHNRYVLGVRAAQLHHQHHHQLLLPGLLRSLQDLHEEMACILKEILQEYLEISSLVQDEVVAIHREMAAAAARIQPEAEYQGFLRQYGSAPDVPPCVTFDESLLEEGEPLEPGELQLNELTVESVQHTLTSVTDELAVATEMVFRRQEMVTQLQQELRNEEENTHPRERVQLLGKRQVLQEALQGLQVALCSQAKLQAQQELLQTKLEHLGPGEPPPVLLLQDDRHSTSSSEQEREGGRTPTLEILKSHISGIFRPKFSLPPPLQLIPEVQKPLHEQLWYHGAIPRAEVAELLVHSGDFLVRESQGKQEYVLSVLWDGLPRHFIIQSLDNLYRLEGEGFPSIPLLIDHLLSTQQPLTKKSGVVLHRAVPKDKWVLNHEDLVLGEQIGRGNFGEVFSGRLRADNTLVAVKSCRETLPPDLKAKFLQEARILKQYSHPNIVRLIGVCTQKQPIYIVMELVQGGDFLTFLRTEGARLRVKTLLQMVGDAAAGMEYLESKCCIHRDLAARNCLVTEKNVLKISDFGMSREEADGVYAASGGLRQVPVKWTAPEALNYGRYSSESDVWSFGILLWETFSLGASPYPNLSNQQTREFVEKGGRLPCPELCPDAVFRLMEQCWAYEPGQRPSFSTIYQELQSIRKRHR
Sequence of EPHB2 (P29323 whole entry, looked up): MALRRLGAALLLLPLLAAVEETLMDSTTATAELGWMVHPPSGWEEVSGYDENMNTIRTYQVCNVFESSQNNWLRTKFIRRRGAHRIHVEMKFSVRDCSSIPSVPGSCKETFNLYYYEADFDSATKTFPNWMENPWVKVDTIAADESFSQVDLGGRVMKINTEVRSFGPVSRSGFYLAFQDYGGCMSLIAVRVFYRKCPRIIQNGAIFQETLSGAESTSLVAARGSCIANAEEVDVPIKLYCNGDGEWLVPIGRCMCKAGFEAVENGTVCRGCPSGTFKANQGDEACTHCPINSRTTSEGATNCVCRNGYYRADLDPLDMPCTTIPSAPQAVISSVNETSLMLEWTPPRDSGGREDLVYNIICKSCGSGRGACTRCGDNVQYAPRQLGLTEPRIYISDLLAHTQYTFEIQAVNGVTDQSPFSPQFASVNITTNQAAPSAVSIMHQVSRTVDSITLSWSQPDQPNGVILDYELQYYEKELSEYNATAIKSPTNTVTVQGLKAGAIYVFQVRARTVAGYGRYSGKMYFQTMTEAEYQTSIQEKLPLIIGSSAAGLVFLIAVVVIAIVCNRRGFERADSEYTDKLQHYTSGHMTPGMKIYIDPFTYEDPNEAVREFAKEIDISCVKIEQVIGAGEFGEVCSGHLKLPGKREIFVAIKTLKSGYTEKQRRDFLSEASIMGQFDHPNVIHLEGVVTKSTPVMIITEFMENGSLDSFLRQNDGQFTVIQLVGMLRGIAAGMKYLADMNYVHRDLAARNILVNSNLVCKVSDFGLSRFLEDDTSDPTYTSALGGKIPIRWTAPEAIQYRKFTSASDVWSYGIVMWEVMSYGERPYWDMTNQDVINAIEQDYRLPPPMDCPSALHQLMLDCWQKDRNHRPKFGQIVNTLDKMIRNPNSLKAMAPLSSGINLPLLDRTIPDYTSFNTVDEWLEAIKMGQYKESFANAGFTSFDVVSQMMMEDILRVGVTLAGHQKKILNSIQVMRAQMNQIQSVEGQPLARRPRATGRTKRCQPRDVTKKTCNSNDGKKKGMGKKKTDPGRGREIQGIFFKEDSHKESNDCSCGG

Row | Sequence | SH2 binding enrichment [14] | SH2 binding enrichment [15] | SH2 binding enrichment [16] | phosphorylation enrichment [1] | phosphorylation enrichment [2] | phosphorylation enrichment [3] | phosphorylation enrichment [4] | phosphorylation enrichment [5] | phosphorylation enrichment [6] | phosphorylation enrichment [7] | phosphorylation enrichment [8] | phosphorylation enrichment [9] | phosphorylation enrichment [10] | phosphorylation enrichment [11] | phosphorylation enrichment [12] | phosphorylation enrichment [13]
1 | LNPDGYEKAYE [CPXM2_Y427] | 0.729 | 4.86 | 0.93 | 0.816 | 1.53 | 0.797 | 2.41 | 1.12 | 0.489 | 0.364 | 0.365 | 0.789 | 0.696 | 0.773 | 0.478 | 0.633
2 | LPKEQYLYTKE [AFG3L2_Y614] | 0.643 | 0.597 | 0.75 | 0.574 | 1.42 | 0.634 | 1.41 | 1.3 | 0.767 | 0.792 | 0.75 | 0.998 | 0.895 | 1.48 | 0.913 | 0.789
3 | LPPGEYVVVPS [CAPN1_Y494] | 0.795 | 0.789 | 1.06 | 3.72 | 1.45 | 0.88 | 1.32 | 1.7 | 0.67 | 0.927 | 0.778 | 1.93 | 5.23 | 1.31 | 0.641 | 2.83
4 | LQLLGDRPVFS [CHST6_Y358_Y358D_YF] | 0.762 | 0.532 | 0.749 | 0.487 | 0.795 | 0.356 | 0.633 | 0.628 | 0.41 | 0.388 | 0.378 | 0.542 | 0.521 | 0.673 | 0.377 | 0.448
5 | LRIAVYHEILI [CREBBP_Y1450_T1447I] | 0.798 | 0.954 | 1.1 | 3.56 | 4.93 | 3.37 | 4.19 | 5.75 | 2.74 | 1.62 | 2.45 | 6.95 | 5.55 | 2.93 | 2.29 | 5.94
6 | LSDGPYSNSFE [EPOR_Y485_P488S_YF] | 0.525 | 1.22 | 1 | 1.11 | 1.65 | 1.23 | 1.18 | 1.49 | 0.915 | 0.858 | 1.36 | 0.976 | 0.982 | 1.2 | 0.83 | 1.07
7 | LSSEMCVKSFT [F5_Y2149_Y2149C_YF] | 0.603 | 0.641 | 1 | 1.34 | 1.45 | 0.683 | 1.11 | 1.36 | 0.971 | 0.854 | 0.815 | 1.13 | 0.472 | 0.932 | 0.726 | 1.07
8 | LTQRTYMLENA [GPAA1_Y49_S51L] | 1.06 | 0.747 | 0.988 | 0.541 | 1.01 | 0.858 | 0.64 | 0.843 | 0.547 | 0.536 | 0.468 | 0.929 | 0.783 | 0.623 | 0.479 | 0.866
9 | LYSNAYLNDLA [ALDH1A1_Y119] | 0.613 | 1.84 | 4.68 | 0.685 | 0.914 | 1.19 | 0.667 | 0.831 | 1.45 | 5.82 | 4.03 | 0.776 | 0.853 | 0.396 | 1.1 | 0.484
10 | MARDIYRASFF [ALK_Y1278_YF] | 0.76 | 0.52 | 0.843 | 0.434 | 0.797 | 0.566 | 0.608 | 0.67 | 0.661 | 0.472 | 0.375 | 0.449 | 0.425 | 3.1 | 0.597 | 0.435
11 | MDQAEYQAKIQ [DHX58_Y518_R523Q] | 0.424 | 0.412 | 0.744 | 0.7 | 1.05 | 0.464 | 0.743 | 0.99 | 0.555 | 0.519 | 0.864 | 0.685 | 0.563 | 0.726 | 0.556 | 0.625
12 | MFNPMYALFRT [HUWE1_Y4078] | 1.1 | 0.811 | 1.09 | 0.693 | 0.905 | 4.28 | 0.827 | 0.946 | 4.67 | 6.9 | 4.26 | 0.676 | 1.42 | 1.19 | 5.38 | 0.545
13 | MGGSVYFSYPD [HIKESHI_Y55] | 1.94 | 0.843 | 0.978 | 0.815 | 1.07 | 3.16 | 1.09 | 1.02 | 1.65 | 1.36 | 0.401 | 1.41 | 0.728 | 0.752 | 3.42 | 1.49

More lines, main results first:

Row | SH2 binding enrichment [14] | SH2 binding enrichment [15] | SH2 binding enrichment [16] | Sequence | phosphorylation enrichment [1] | phosphorylation enrichment [2] | phosphorylation enrichment [3] | phosphorylation enrichment [4] | phosphorylation enrichment [5] | phosphorylation enrichment [6] | phosphorylation enrichment [7] | phosphorylation enrichment [8] | phosphorylation enrichment [9] | phosphorylation enrichment [10] | phosphorylation enrichment [11] | phosphorylation enrichment [12] | phosphorylation enrichment [13]
14 | 2.19 | 0.74 | 1.5 | LNPLFYSLRNK [OR5R1_Y290_I289F] | 0.537 | 0.773 | 0.511 | 0.468 | 0.552 | 0.475 | 0.395 | 0.75 | 0.737 | 0.396 | 0.363 | 0.348 | 0.481
15 | 1.28 | 0.75 | 0.665 | LREKVYASLEA [RXRA_Y397] | 0.862 | 1.9 | 6.2 | 1.21 | 1.63 | 2.9 | 2.22 | 0.892 | 0.944 | 0.823 | 5.68 | 6.94 | 0.84
16 | 0.936 | 6.38 | 1.25 | LRNRVYEVPVE [SLC26A3_Y756] | 1.54 | 1.25 | 1.17 | 2.04 | 1.65 | 1.37 | 3.3 | 4.25 | 0.757 | 1.12 | 1.52 | 1.18 | 0.584
17 | 1.54 | 0.557 | 0.84 | LSALDYKIFFF [WDPCP_Y210_YF] | 0.71 | 1.05 | 0.418 | 0.991 | 1.5 | 0.585 | 0.332 | 0.672 | 0.833 | 0.588 | 0.725 | 0.717 | 0.753
18 | 0.473 | 0.429 | 0.733 | LSVEIHDRREY [ITGB7_Y753_Y753H] | 0.54 | 1.08 | 0.336 | 1.12 | 1.09 | 0.463 | 0.336 | 0.473 | 0.633 | 0.55 | 0.823 | 0.438 | 0.414
19 | 1.58 | 0.673 | 0.76 | LVGTPYWMAPE [PAK5_Y608] | 0.437 | 1.15 | 0.683 | 1.14 | 0.91 | 0.459 | 0.856 | 0.573 | 1.84 | 0.775 | 0.694 | 2.71 | 2.09
20 | 0.511 | 0.685 | 0.699 | LVQAEYWHDRI [PPT1_Y185_P189R] | 0.896 | 1 | 0.396 | 1.25 | 1.16 | 0.605 | 0.522 | 0.706 | 2.08 | 0.684 | 0.868 | 0.603 | 3.27
21 | 1.35 | 0.725 | 1.2 | LVVFEYMRHGD [NTRK1_Y591_M587V] | 0.556 | 1.03 | 0.46 | 0.761 | 0.875 | 0.475 | 0.392 | 0.456 | 0.625 | 0.577 | 0.476 | 0.374 | 0.486
22 | 1.06 | 0.416 | 1.09 | LWPIWYRCHRP [MRGPRX1_Y130] | 0.893 | 1.63 | 0.798 | 1.17 | 1.86 | 0.699 | 0.804 | 0.702 | 1.02 | 0.721 | 1.15 | 0.466 | 1.04
23 | 0.857 | 0.421 | 0.565 | LWPIWYRCRRP [MRGPRX1_Y130_H133R] | 0.49 | 0.512 | 0.522 | 0.408 | 0.618 | 0.805 | 0.685 | 0.331 | 0.507 | 0.58 | 0.542 | 0.431 | 0.461
24 | 2.45 | 1.2 | 1.69 | LYSINYLHFGD [KDM4C_Y201_E206D] | 12.1 | 1.84 | 4.87 | 1.47 | 1.99 | 4.59 | 12.8 | 15.8 | 3.85 | 12.7 | 1.73 | 3.68 | 5.82
25 | 0.695 | 0.578 | 0.705 | LYVDVYGPSVP [NUBPL_Y109_D105Y] | 1.09 | 1.32 | 2.02 | 0.977 | 1.48 | 2.85 | 2.27 | 2.21 | 2.02 | 3.63 | 0.902 | 2.15 | 2.8
26 | 0.838 | 0.593 | 1.03 | MANFMYKAGPS [MAML2_Y515_YF] | 0.525 | 0.68 | 0.383 | 0.739 | 0.947 | 0.39 | 0.339 | 0.386 | 0.44 | 0.367 | 0.534 | 0.41 | 0.378
27 | 1.01 | 0.696 | 1.15 | MCDKEYFSVHN [MET_Y1234_Y1230C_YF] | 0.482 | 0.866 | 0.505 | 1.11 | 1.31 | 0.453 | 0.404 | 0.506 | 1.47 | 0.692 | 0.586 | 0.576 | 1.78
28 | 0.632 | 0.591 | 0.935 | MCITQYERESQ [PRNP_Y218] | 0.495 | 0.895 | 0.496 | 0.654 | 0.837 | 0.447 | 0.485 | 0.453 | 0.557 | 0.419 | 0.648 | 0.394 | 0.491
29 | 0.443 | 0.442 | 0.808 | MDDKEYFSVHN [MET_Y1234_Y1230D_YF] | 0.587 | 1.03 | 0.411 | 1.02 | 1.43 | 0.452 | 0.447 | 0.434 | 0.919 | 0.492 | 0.757 | 0.435 | 0.743
30 | 0.714 | 0.732 | 0.842 | MEIHAYLKLLE [LMNA_Y376_R377L] | 0.708 | 1.8 | 0.521 | 1.62 | 1.33 | 0.574 | 0.48 | 0.587 | 0.959 | 0.859 | 1.24 | 0.569 | 0.517
31 | 0.475 | 0.769 | 0.786 | METKGYHSLPE [NR3C2_Y6] | 0.367 | 1.01 | 0.287 | 0.804 | 0.696 | 0.377 | 0.515 | 0.399 | 0.563 | 0.48 | 0.704 | 0.446 | 0.434
32 | 0.548 | 0.515 | 0.776 | MFQVQYNSSVD [LRFN1_Y458_YF] | 0.432 | 0.86 | 0.394 | 0.771 | 0.859 | 0.436 | 0.398 | 0.514 | 0.581 | 0.486 | 0.566 | 0.373 | 0.425
33 | 1.58 | 0.59 | 1.05 | MGSFNYLGFAR [SPTLC2_Y178_YF] | 0.493 | 0.661 | 0.439 | 1.15 | 0.63 | 0.485 | 0.443 | 0.431 | 0.603 | 0.942 | 0.521 | 0.535 | 0.504
